The Human Domainome abundance scans (Beltran et al. 2025)
± gives the uncertainty stated by the source.

B1: Ankyrin-2, residues 3571 to 3650; numbered along this chain, Q01484 (parent)
chain: ERLAYIADHLGFSWTELARELDFTEEQIHQIRIENPNSLQDQSHALLKYWLERDGKHATDTNLVECLTKINRMDIVHLME

Variants of: B1
Assay: abundance fitness (aPCA) (normalised: wild type 0, dead -1); higher = more abundant; growth selection in yeast, the domain comes from the species named
Details: Homo sapiens
ERLAYIADHLGFSWTELARELDFTEEQIEQIRIENPNSLQDQSHALLKYWLERDGKHATDTNLVECLTKINRMDIVHLME gave an abundance fitness of -0.041 ± 0.17. ERLAYIADHLGFSWTELARELDFTEEQINQIRIENPNSLQDQSHALLKYWLERDGKHATDTNLVECLTKINRMDIVHLME gave an abundance fitness of -0.108 ± 0.25. For ERLAYIADHLGFSWTENARELDFTEEQIHQIRIENPNSLQDQSHALLKYWLERDGKHATDTNLVECLTKINRMDIVHLME, the abundance fitness was -1.15 ± 0.42. Variant ERLAYIADHLGFSWTELARELDFTEEQIHQIRIENPNSLQDQSHALLKYWLERDGKHATDTNLMECLTKINRMDIVHLME has an abundance fitness of 0.007 ± 0.12. Variant ERLAYIADHLGFSKTELARELDFTEEQIHQIRIENPNSLQDQSHALLKYWLERDGKHATDTNLVECLTKINRMDIVHLME has an abundance fitness of -1 ± 0.41. With ERLAYIADHLGFSWTELARELDFTEEQIHQIRIENPNSLQDQSHALLKYWLERDGKHATWTNLVECLTKINRMDIVHLME the abundance fitness was -0.067 ± 0.049. In the case of ERLAYIADHLGFSWTELARDLDFTEEQIHQIRIENPNSLQDQSHALLKYWLERDGKHATDTNLVECLTKINRMDIVHLME, the abundance fitness is reported as 0.018 ± 0.24. ERLEYIADHLGFSWTELARELDFTEEQIHQIRIENPNSLQDQSHALLKYWLERDGKHATDTNLVECLTKINRMDIVHLME showed an abundance fitness of -0.017 ± 0.054. In the case of ERLAYIADHLGFSWTELARELDFTEEQIHQIRIENPNSLQDQSHALLKYWLERDGHHATDTNLVECLTKINRMDIVHLME, the abundance fitness is reported as 0.022 ± 0.099. For ERLAYIADHLGFSWTELARELDFTEEQIHKIRIENPNSLQDQSHALLKYWLERDGKHATDTNLVECLTKINRMDIVHLME, the abundance fitness was -0.112 ± 0.15. ERLAYIADHLGFSWTELARELDFTEEQIHPIRIENPNSLQDQSHALLKYWLERDGKHATDTNLVECLTKINRMDIVHLME gave an abundance fitness of -0.825 ± 0.071. ERLAYIADHLGFSWTELARELDFTEEQIHQIRIENPNSLWDQSHALLKYWLERDGKHATDTNLVECLTKINRMDIVHLME gave an abundance fitness of -0.065 ± 0.095. ERLAYIADHLGFSWTELARELDFTEEQIHQIRIENPNSLIDQSHALLKYWLERDGKHATDTNLVECLTKINRMDIVHLME gave an abundance fitness of -0.124 ± 0.3. With ERLAYIADHLGFSWTELARELDFTEEQIHQIRIENPNSLTDQSHALLKYWLERDGKHATDTNLVECLTKINRMDIVHLME the abundance fitness was -0.033 ± 0.13. Work on ERLAYIADHLGFSWTELARELDFTEEQIHQIRIENPNSLQDQSHALLKYWLERDGKHATDTNLVECLTWINRMDIVHLME yielded an abundance fitness of -0.306 ± 0.05. For ERLAYIADHLGFSWTELARELDFTEEQIHQIRIENPNSLQDQSHALLKYWLERDGKHATDTNLVECLTAINRMDIVHLME, the abundance fitness was 0.001 ± 0.041. For ERLAYIADHLGFSWTELARELDFTEEQIHQIRIENPNSLQDQSHALLKYWLERDGKHATDINLVECLTKINRMDIVHLME, the abundance fitness was 0.027 ± 0.24. Work on ERLAYIADHLGFSWTELARELDFTEEQIHQIRIENPNSLQDQSHALLKYWLERDGKHATDENLVECLTKINRMDIVHLME yielded an abundance fitness of -0.07 ± 0.13. With ERLAYIADHLGFSWTELARELDFTEEQIHQIRNENPNSLQDQSHALLKYWLERDGKHATDTNLVECLTKINRMDIVHLME the abundance fitness was -0.223 ± 0.12. ERLAYIADHLGFSWTELARELDFTEEQIHQIRIENPNSLQDQSHALNKYWLERDGKHATDTNLVECLTKINRMDIVHLME gave an abundance fitness of -0.582 ± 0.23. ERLAYIADHLGFSWTELARELDFTEEQIHQIRIENPNSLQDQSHALGKYWLERDGKHATDTNLVECLTKINRMDIVHLME gave an abundance fitness of -0.409 ± 0.06. ERLAYIADHLGFSWTELARELDFTEEQIHQIRIENPNSLQDQSHALMKYWLERDGKHATDTNLVECLTKINRMDIVHLME gave an abundance fitness of 0.123 ± 0.098. Work on ERLAYIADHLGFSWTELARELDFTEEQIHQIRIENPNSLQDQSHALWKYWLERDGKHATDTNLVECLTKINRMDIVHLME yielded an abundance fitness of -0.238 ± 0.079. Variant ERLAYIADHLGFSWTELARELDFTEEQIHQIRIENPNSLQDQSHALLKYWLERGGKHATDTNLVECLTKINRMDIVHLME has an abundance fitness of 0.003 ± 0.061. ERLAYIADHLGFSWTELARELDFTEEQIHQIRIENPNSLQDQSHALLKYWLERQGKHATDTNLVECLTKINRMDIVHLME showed an abundance fitness of -0.111 ± 0.11. ERLAYIADHLGFSWTELARELDFTEEQIHQIRIENPNSLQDQSHALLKYWLERHGKHATDTNLVECLTKINRMDIVHLME gave an abundance fitness of 0.025 ± 0.1. ERLAYIADHLGFSWTELARELDFTEEQIHQIRIENPQSLQDQSHALLKYWLERDGKHATDTNLVECLTKINRMDIVHLME showed an abundance fitness of -0.069 ± 0.091. In the case of ERLAYIADHLGFSWTELARELDFTEEQIHQIRIENPNSLQDQSHALLKYWLERDGKHATDTNLVECPTKINRMDIVHLME, the abundance fitness is reported as -0.875 ± 0.16. ERLAYIADHLGFSWTELAREIDFTEEQIHQIRIENPNSLQDQSHALLKYWLERDGKHATDTNLVECLTKINRMDIVHLME gave an abundance fitness of -0.268 ± 0.17. With ERLAYIADHLGFSWTELARELDFTEEQIHQIRIENPNSLQDQSHALLNYWLERDGKHATDTNLVECLTKINRMDIVHLME the abundance fitness was 0.028 ± 0.14. ERLAYIADHLGFSWTELARELDFTEEQIHQIRIENPNSLQDQRHALLKYWLERDGKHATDTNLVECLTKINRMDIVHLME gave an abundance fitness of -0.701 ± 0.24. Work on ERLAYIADHLGFSWTELARELDFTEEQIHQIRIENPNSLQDQSHAALKYWLERDGKHATDTNLVECLTKINRMDIVHLME yielded an abundance fitness of 0.143 ± 0.2. ERLAYIADHLGFSWTELARELDFTEEQIHQIRIENPNSLQDQSHALLKVWLERDGKHATDTNLVECLTKINRMDIVHLME gave an abundance fitness of 0.068 ± 0.078. For ERLAYIADHLGFSWTELARELDFTEEQIHQIRIENPNSLQDQSHALLKYWLERDGKHATDTNLVECLTKHNRMDIVHLME, the abundance fitness was -0.334 ± 0.17.
